From patent US20090226432A1 (MICROMET, published 2009)

Legend:
[1] = target: T1, soluble human CEA antigen (human, UniProt P06731 35-685, limits assumed, biotinylated with EZ-Link Sulfo NHS-LC-LC-Biotin in the ELISA (not in the cytotoxicity competition assays)); assay: refers to Examples 2 and 3 (flow cytometry, ELISA)
T1 construct: also called soluble CEA; soluble biotinylated human CEA (Abcam)
T1 sequence: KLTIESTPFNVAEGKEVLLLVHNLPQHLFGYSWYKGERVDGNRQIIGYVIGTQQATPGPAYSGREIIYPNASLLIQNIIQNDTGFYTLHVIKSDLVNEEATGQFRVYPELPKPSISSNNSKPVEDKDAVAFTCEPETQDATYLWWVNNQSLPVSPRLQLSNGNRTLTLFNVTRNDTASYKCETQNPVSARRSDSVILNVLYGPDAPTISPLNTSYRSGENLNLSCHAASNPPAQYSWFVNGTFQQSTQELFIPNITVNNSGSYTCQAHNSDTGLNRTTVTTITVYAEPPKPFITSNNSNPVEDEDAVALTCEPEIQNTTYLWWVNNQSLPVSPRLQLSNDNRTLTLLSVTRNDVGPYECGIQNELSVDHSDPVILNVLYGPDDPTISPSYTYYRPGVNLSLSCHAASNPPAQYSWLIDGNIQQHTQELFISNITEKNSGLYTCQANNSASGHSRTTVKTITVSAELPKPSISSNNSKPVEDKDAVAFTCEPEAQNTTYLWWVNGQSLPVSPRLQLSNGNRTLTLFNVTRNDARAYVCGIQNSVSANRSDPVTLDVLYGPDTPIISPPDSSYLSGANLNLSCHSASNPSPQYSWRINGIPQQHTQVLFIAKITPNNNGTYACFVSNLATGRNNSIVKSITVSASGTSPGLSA

[2] = target: T1, soluble human CEA antigen; assay: direct ELISA, biotinylated soluble CEA on streptavidin plate; 0.5 and 5 ug/ml
Procedure: The direct ELISA to determine the specificity of CEA×CD3 bispecific single chain antibody against soluble human CEA was carried out according to standard procedures. Briefly, 50 μl/well PBS or soluble biotinylated human CEA (Abcam; 5 μg/ml in 1×PBS) were immobilized on a 96-well streptavidin-coated ELISA plate (Nunc) by incubating at 4° C. for about 16 hours. After washing with 200 μl water per well 200 μl of blocking solution (PBS/3% BSA) was added. After blocking for 1 h at room temperature the blocking solution was removed. All subsequent washing (200 μl/well of 1×PBS/0.05% (v/v) Tween20) and incubation steps were performed at room temperature. After washing once, the CEAI VHVL×SEQ ID NO.77 VHVL (SEQ ID NO. 8; anti-CEA part derived from mAb A5B7), CEAII VHVL×SEQ ID NO.77 VHVL (SEQ ID NO. 10; anti-CEA part derived from mAb T84.66), and CEAIII VHVL×SEQ ID NO.77 VHVL (SEQ ID NO. 14; anti-CEA part derived from mAb MFE-23) bispecific single chain antibodies, and mouse monoclonal antibody CEA/CD66 Ab-3 (Col-1; Dunn) were incubated in different concentrations (0.5 μg/ml and 5 μg/ml in 1×PBS; 50 μl/well) for 1 hour. 1×PBS (50 μl/well) was added as a control for unspecific binding. 3 washing steps were followed by adding 50 μl/well Penta-His IgG (Qiagen; 2 μg/ml in 1×PBS) for detection of the His-tagged bispecific single chain antibodies. Subsequently, the wells were washed 3 times and incubated with 50 μl of a horseradish peroxidase-labelled goat anti-mouse Fc gamma-specific antibody (Jackson ImmuneResearch; 1:1000 in 1×PBS) for 1 hour. After washing 3 times the ELISA was developed by adding ABTS substrate solution (Roche) and the absorbance was measured at a wavelength of 405 nm.

[3] = target: T1, soluble human CEA antigen; assay: refers to the ELISA of FIG. 2

B1: CEA III VLVH x SEQ ID NO. 77 VHVL (bispecific antibody)
chain: ENVLTQSPAIMSASPGEKVTITCSASSSVSYMHWFQQKPGTSPKLWIYSTSNLASGVPARFSGSGSGTSYSLTISRMEAEDAATYYCQQRSSYPLTFGAGTKLELKGGGGSGGGGSGGGGSQVKLQQSGAELVRSGTSVKLSCTASGFNIKDSYMHWLRQGPEQGLEWIGWIDPENGDTEYAPKFQGKATFTTDTSSNTAYLQLSSLTSEDTAVYYCNEGTPTGPYYFDYWGQGTTVTVSSGGGGSDVQLVQSGAEVKKPGASVKVSCKASGYTFTRYTMHWVRQAPGQGLEWIGYINPSRGYTNYADSVKGRFTITTDKSTSTAYMELSSLRSEDTATYYCARYYDDHYCLDYWGQGTTVTVSSGEGTSTGSGGSGGSGGADDIVLTQSPATLSLSPGERATLSCRASQSVSYMNWYQQKPGKAPKRWIYDTSKVASGVPARFSGSGSGTDYSLTINSLEAEDAATYYCQQWSSNPLTFGGGTKVEIK
notes: Bispecific single chain antibody; anti-CEA part from mAb MFE-23; also called CEA III-LH
**Q.** Does B1 bind [1]?
**A.** Result: binds

B2: CEA III VHVL x SEQ ID NO. 77 VHVL (bispecific antibody)
chain: QVKLQQSGAELVRSGTSVKLSCTASGFNIKDSYMHWLRQGPEQGLEWIGWIDPENGDTEYAPKFQGKATFTTDTSSNTAYLQLSSLTSEDTAVYYCNEGTPTGPYYFDYWGQGTTVTVSSGGGGSGGGGSGGGGSENVLTQSPAIMSASPGEKVTITCSASSSVSYMHWFQQKPGTSPKLWIYSTSNLASGVPARFSGSGSGTSYSLTISRMEAEDAATYYCQQRSSYPLTFGAGTKLELKSGGGGSDVQLVQSGAEVKKPGASVKVSCKASGYTFTRYTMHWVRQAPGQGLEWIGYINPSRGYTNYADSVKGRFTITTDKSTSTAYMELSSLRSEDTATYYCARYYDDHYCLDYWGQGTTVTVSSGEGTSTGSGGSGGSGGADDIVLTQSPATLSLSPGERATLSCRASQSVSYMNWYQQKPGKAPKRWIYDTSKVASGVPARFSGSGSGTDYSLTINSLEAEDAATYYCQQWSSNPLTFGGGTKVEIK
notes: Bispecific single chain antibody; anti-CEA part from mAb MFE-23; also called CEA III-HL
**Q.** Does B2 bind [2]?
**A.** Result: binds

B3: SEQ ID NO. 77 VHVL x CEA I VLVH (bispecific antibody)
chain: DVQLVQSGAEVKKPGASVKVSCKASGYTFTRYTMHWVRQAPGQGLEWIGYINPSRGYTNYADSVKGRFTITTDKSTSTAYMELSSLRSEDTATYYCARYYDDHYCLDYWGQGTTVTVSSGEGTSTGSGGSGGSGGADDIVLTQSPATLSLSPGERATLSCRASQSVSYMNWYQQKPGKAPKRWIYDTSKVASGVPARFSGSGSGTDYSLTINSLEAEDAATYYCQQWSSNPLTFGGGTKVEIKSGGGGSDIELTQSPAILSASPGEKVTMTCRASSSVTYIHWYQQKPGSSPKSWIYATSNLASGVPARFSGSGSGTSYSLTISRVEAEDAATYYCQHWSSKPPTFGGGTKLEIKGGGGSGGGGSGGGGSQVQLQESGGGLVQPGGSLRLSCATSGFTFTDYYMNWVRQPPGKALEWLGFIGNKANGYTTEYSASVKGRFTISRDKSQSILYLQMNTLRAEDSATYYCTRDRGLRFYFDYWGQGTTVTVSS
notes: Bispecific single chain antibody, anti-CD3 part N-terminal, anti-CEA part from mAb A5B7
**Q.** Does B3 bind [3]?
**A.** Result: binds

B4: CEA I VLVH x SEQ ID NO. 77 VHVL (bispecific antibody)
chain: DIELTQSPAILSASPGEKVTMTCRASSSVTYIHWYQQKPGSSPKSWIYATSNLASGVPARFSGSGSGTSYSLTISRVEAEDAATYYCQHWSSKPPTFGGGTKLEIKGGGGSGGGGSGGGGSQVQLQESGGGLVQPGGSLRLSCATSGFTFTDYYMNWVRQPPGKALEWLGFIGNKANGYTTEYSASVKGRFTISRDKSQSILYLQMNTLRAEDSATYYCTRDRGLRFYFDYWGQGTTVTVSSGGGGSDVQLVQSGAEVKKPGASVKVSCKASGYTFTRYTMHWVRQAPGQGLEWIGYINPSRGYTNYADSVKGRFTITTDKSTSTAYMELSSLRSEDTATYYCARYYDDHYCLDYWGQGTTVTVSSGEGTSTGSGGSGGSGGADDIVLTQSPATLSLSPGERATLSCRASQSVSYMNWYQQKPGKAPKRWIYDTSKVASGVPARFSGSGSGTDYSLTINSLEAEDAATYYCQQWSSNPLTFGGGTKVEIK
notes: Bispecific single chain antibody; anti-CEA part from murine mAb A5B7; also called CEA I-LH
**Q.** Does B4 bind [3]?
**A.** Result: binds

B5: SEQ ID NO. 77 VHVL x CEA I VHVL (bispecific antibody)
chain: DVQLVQSGAEVKKPGASVKVSCKASGYTFTRYTMHWVRQAPGQGLEWIGYINPSRGYTNYADSVKGRFTITTDKSTSTAYMELSSLRSEDTATYYCARYYDDHYCLDYWGQGTTVTVSSGEGTSTGSGGSGGSGGADDIVLTQSPATLSLSPGERATLSCRASQSVSYMNWYQQKPGKAPKRWIYDTSKVASGVPARFSGSGSGTDYSLTINSLEAEDAATYYCQQWSSNPLTFGGGTKVEIKSGGGGSQVQLQESGGGLVQPGGSLRLSCATSGFTFTDYYMNWVRQPPGKALEWLGFIGNKANGYTTEYSASVKGRFTISRDKSQSILYLQMNTLRAEDSATYYCTRDRGLRFYFDYWGQGTTVTVSSGGGGSGGGGSGGGGSDIELTQSPAILSASPGEKVTMTCRASSSVTYIHWYQQKPGSSPKSWIYATSNLASGVPARFSGSGSGTSYSLTISRVEAEDAATYYCQHWSSKPPTFGGGTKLEIK
notes: as for B3
**Q.** Does B5 bind [3]?
**A.** Result: binds

B6: CEA II VHVL x SEQ ID NO. 77 VHVL (bispecific antibody)
chain: EVQLQQSGAELVEPGASVKLSCTASGFNIKDTYMHWVKQRPEQGLEWIGRIDPANGNSKYVPKFQGKATITADTSSNTAYLQLTSLTSEDTAVYYCAPFGYYVSDYAMAYWGQGTSVTVSSGGGGSGGGGSGGGGSDIVLTQSPASLAVSLGQRATMSCRAGESVDIFGVGFLHWYQQKPGQPPKLLIYRASNLESGIPVRFSGTGSRTDFTLIIDPVEADDVATYYCQQTNEDPYTFGGGTKLEIKSGGGGSDVQLVQSGAEVKKPGASVKVSCKASGYTFTRYTMHWVRQAPGQGLEWIGYINPSRGYTNYADSVKGRFTITTDKSTSTAYMELSSLRSEDTATYYCARYYDDHYCLDYWGQGTTVTVSSGEGTSTGSGGSGGSGGADDIVLTQSPATLSLSPGERATLSCRASQSVSYMNWYQQKPGKAPKRWIYDTSKVASGVPARFSGSGSGTDYSLTINSLEAEDAATYYCQQWSSNPLTFGGGTKVEIK
notes: Bispecific single chain antibody; anti-CEA part from mAb T84.66; also called CEA II HL
**Q.** Does B6 bind [2]?
**A.** Result: binds

B7: CEA I VHVL x SEQ ID NO. 77 VHVL (bispecific antibody)
chain: QVQLQESGGGLVQPGGSLRLSCATSGFTFTDYYMNWVRQPPGKALEWLGFIGNKANGYTTEYSASVKGRFTISRDKSQSILYLQMNTLRAEDSATYYCTRDRGLRFYFDYWGQGTTVTVSSGGGGSGGGGSGGGGSDIELTQSPAILSASPGEKVTMTCRASSSVTYIHWYQQKPGSSPKSWIYATSNLASGVPARFSGSGSGTSYSLTISRVEAEDAATYYCQHWSSKPPTFGGGTKLEIKSGGGGSDVQLVQSGAEVKKPGASVKVSCKASGYTFTRYTMHWVRQAPGQGLEWIGYINPSRGYTNYADSVKGRFTITTDKSTSTAYMELSSLRSEDTATYYCARYYDDHYCLDYWGQGTTVTVSSGEGTSTGSGGSGGSGGADDIVLTQSPATLSLSPGERATLSCRASQSVSYMNWYQQKPGKAPKRWIYDTSKVASGVPARFSGSGSGTDYSLTINSLEAEDAATYYCQQWSSNPLTFGGGTKVEIK
notes: Bispecific single chain antibody; also called CEA I-HL
**Q.** Does B7 bind [2]?
**A.** Result: binds
